Results from paper PMC12431857, “A multichaperone condensate enhances protein folding in the endoplasmic reticulum” (Nature Cell Biology, 2025).
Numbering of substitutions follows the chain as printed. In names and notes the source's numbering stands.

B1: PDIA6 his-domain ab (residues 161-440) (domain or fragment, human, UniProt Q15084 161-440, looked up)
chain: DVIELTDDSFDKNVLDSEDVWMVEFYAPWCGHCKNLEPEWAAAASEVKEQTKGKVKLAAVDATVNQVLASRYGIRGFPTIKIFQKGESPVDYDGGRTRSDIVSRALDLFSDNAPPPELLEIINEDIAKRTCEEHQLCVVAVLPHILDTGAAGRNSYLEVLLKLADKYKKKMWGWLWTEAGAQSELETALGIGGFGYPAMAAINARKMKFALLKGSFSEQGINEFLRELSFGRGSTAPVGGGAFPTIVEREPWDGRDGELPVEDDIDLSDVELDDLGKDEL
notes: PDIA6, human, domains a and b with the C-terminal tail, residues 161-440; also called PDIA6 domain ab; his-TEV-domain ab; source: E. coli BL21-(DE3)-Lemo, purified (Ni-NTA, SEC); not shown: His6, N-terminal, kept
B2: Human PDIA6 lacking its ER signal sequence (residues 19-440) (natural protein, UniProt Q15084-1 19-440, looked up)
chain: GLYSSSDDVIELTPSNFNREVIQSDSLWLVEFYAPWCGHCQRLTPEWKKAATALKDVVKVGAVDADKHHSLGGQYGVQGFPTIKIFGSNKNRPEDYQGGRTGEAIVDAALSALRQLVKDRLGGRSGGYSSGKQGRSDSSSKKDVIELTDDSFDKNVLDSEDVWMVEFYAPWCGHCKNLEPEWAAAASEVKEQTKGKVKLAAVDATVNQVLASRYGIRGFPTIKIFQKGESPVDYDGGRTRSDIVSRALDLFSDNAPPPELLEIINEDIAKRTCEEHQLCVVAVLPHILDTGAAGRNSYLEVLLKLADKYKKKMWGWLWTEAGAQSELETALGIGGFGYPAMAAINARKMKFALLKGSFSEQGINEFLRELSFGRGSTAPVGGGAFPTIVEREPWDGRDGELPVEDDIDLSDVELDDLGKDEL
notes: Homodimer by SEC-MALS; Isotope-labelled (methyl labelling) for NMR; also called PDIA6 WT; PDIA6 full-length; not shown: His6, N-terminal, cleaved
B3: PDIA6 (R142Q, K150N, R153Q) linker mutant (natural protein, human, UniProt Q15084 19-440, looked up)
chain: B2 chain with R124Q, K132N, R135Q
notes: PDIA6, human, residues 19-440; source: E. coli BL21-(DE3)-Lemo, purified as the WT protein; not shown: His6, N-terminal, cleaved
B4: DyLight 488-PDIA6 (N-terminally tagged, residues 19-440) (natural protein, human, UniProt Q15084 19-440, looked up)
chain: B2 chain
modifications: DyLight 488 amine-reactive dye on the N-terminus
notes: Same construct as m1, fluorescently labelled for MST (0.75-1.5 moles dye per mole protein); not shown: His6, N-terminal, cleaved
B5: PDIA6 (K150N, R153Q, K159N) linker mutant (natural protein, human, UniProt Q15084 19-440, looked up)
chain: B2 chain with K132N, R135Q, K141N
notes: as for B3
B6: PDIA6 5x linker mutant (R142Q, K150N, R153Q, K159N and K160N) (natural protein, human, UniProt Q15084 19-440, looked up)
chain: B2 chain with R124Q, K132N, R135Q, K141N, K142N
notes: as for B3
B7: 21-residue peptide corresponding to the a0-a linker of PDIA6 (peptide)
peptide: GGRSGGYSSGKQGRSDSSSKK
notes: linker between domains a0 and a of human PDIA6; Limits worked out from the printed positions R142, K150, R153, K159, K160 of the linker mutants; also called linker peptide

Columns and labels:
[1] = target: T1, Human BiP lacking its ER signal sequence (residues 19-654) (human, UniProt P11021 19-654); experiment: NMR titration; 2D [13C,1H]-HMQC or [15N,1H]-HSQC of 100 μM labelled protein without and with 2 eq. of the unlabelled partner; chemical shift perturbation mapping; 37 °C; details: both partners purified
T1 construct: Isotope-labelled (Ile, Met, Val methyl groups) where it was the observed protein in NMR; also called Hsp70 BiP; GRP78; not shown: His6, N-terminal, cleaved

[2] = target: the molecule itself; experiment: SEC-MALS; S200 10/300 GL column, 25 °C, SEC buffer (25 mM HEPES pH 7.5, 150 mM KCl, 10 mM MgCl2); proteins eluted at 20 μM
[3] = target: T1, Human BiP lacking its ER signal …; experiment: MST; 20 nM N-terminally tagged DyLight 488-PDIA6 with increasing BiP; SEC buffer with 5 mM ADP, 1 mM KH2PO4/K2HPO4, 0.05% Tween, 1 mM CaCl2; 30 min at 25 °C; Monolith NT.115; triplicates; details: both partners purified
[4] = target: B2; experiment: NMR titration; 2D [13C,1H]-HMQC of methyl-labelled full-length PDIA6 with 10 mM Ca2+, 10 eq. linker peptide added, no crowding agent, 37 °C; read-out: populations of conformations P and O of domain b; also after addition of 1 M KCl; details: both partners purified

T1 sequence (P11021 19-654): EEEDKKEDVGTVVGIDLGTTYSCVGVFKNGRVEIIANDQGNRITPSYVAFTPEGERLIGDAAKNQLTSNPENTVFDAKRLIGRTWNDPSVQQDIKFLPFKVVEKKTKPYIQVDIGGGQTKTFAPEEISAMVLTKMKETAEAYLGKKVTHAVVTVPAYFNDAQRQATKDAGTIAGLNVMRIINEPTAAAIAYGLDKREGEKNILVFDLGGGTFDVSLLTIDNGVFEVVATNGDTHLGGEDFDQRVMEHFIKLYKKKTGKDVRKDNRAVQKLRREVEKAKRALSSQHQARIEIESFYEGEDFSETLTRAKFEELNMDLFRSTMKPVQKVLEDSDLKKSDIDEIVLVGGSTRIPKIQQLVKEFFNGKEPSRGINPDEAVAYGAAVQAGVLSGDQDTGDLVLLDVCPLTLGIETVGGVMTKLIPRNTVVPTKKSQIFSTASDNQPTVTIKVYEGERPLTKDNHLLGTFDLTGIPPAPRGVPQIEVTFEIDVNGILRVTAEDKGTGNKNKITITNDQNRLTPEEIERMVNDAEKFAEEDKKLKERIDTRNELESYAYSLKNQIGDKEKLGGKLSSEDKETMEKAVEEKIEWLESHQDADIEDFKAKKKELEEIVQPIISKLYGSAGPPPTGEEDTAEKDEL

Binder	stoichiometry N [2]	also measured
B1		binding result [1]: binds
B2	2	binding result [1]: binds
B3	2	
B4		Kd [3]: ~50 µM
B5	2	
B6	2	
B7		binding result [4]: binds
